Reference: US20230190701A1, “Compounds for Treating Tauopathies and Restless Leg Syndrome and Methods of Using and Screening for Same” (The United States Government as Represented, priority 2020, published 2023)

Tests used:
Format in all cases: biochemical
[1] = target: T1, PTPRD D1 phosphatase (SEQ ID NO: 1) (Homo sapiens, UniProt P23468); assay: Orthophosphate release assay (malachite green/molybdate) with phosphopeptide substrates; settings: for PTPRD's activity in dephosphorylating CDK5 phosphopeptide (positive allosteric modulation): pY15 CDK5 phosphopeptide, flavonoid 10^−4 M (FIG. 7); for PTPRD's activity in dephosphorylating CDK5 phosphopeptide (positive allosteric modulation) / PTPRD's activity in dephosphorylating GSK3 phosphopeptide (positive allosteric modulation): vs vehicle; for PTPRD's activity in dephosphorylating GSK3 phosphopeptide (positive allosteric modulation): pYGSK3 phosphopeptide, flavonoid 10^−4 M (FIG. 8); for normalized rates of liberation of orthophosphate from pY15CDK5 alanine substitution mutants vs wildtype: FIG. 5, Glu-substitution mutants (1, 4, 6) reductions, Lys-substitution mutants (2, 7) increases
T1 construct: His6 (N); made in house; host or cells: E. coli (vector optimized for E. coli codon use)
T1 sequence (P23468 with tags, fused parts or gaps): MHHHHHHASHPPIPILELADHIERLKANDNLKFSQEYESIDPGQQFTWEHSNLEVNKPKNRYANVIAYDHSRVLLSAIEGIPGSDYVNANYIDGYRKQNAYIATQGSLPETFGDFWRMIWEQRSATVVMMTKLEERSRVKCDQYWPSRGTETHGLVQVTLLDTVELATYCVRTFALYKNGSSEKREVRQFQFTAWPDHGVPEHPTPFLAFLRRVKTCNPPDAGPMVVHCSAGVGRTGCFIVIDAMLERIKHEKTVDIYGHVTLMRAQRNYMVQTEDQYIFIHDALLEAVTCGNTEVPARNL
Source text: The following examples utilized phosphatase protein produced from a His-tagged D1 phosphatase domain synthesized expression vector optimized for E. coli codon use (SEQ ID NO: 1). This protein was purified to >95% purity and was active in hydrolyzing pNPP substrate (FIG. 1). Human wildtype and mutant phospho- and dephospho-GSK3β/GSK3α and CDK5 peptides were synthesized (Pierce/ThermoFisher, SEQ ID NOs: 2-12) and control END(pY)INASL peptide (Promega, SEQ ID NO: 13) was purchased. Flavonoids were purchased from Thermo-Fisher, Aldrich, Cayman Chemical and AK Scientific. Purities were >95%.
Orthophosphate release assays (Promega V2471) used Malachite green and molybdate with spectrophotometric detection of liberated free orthophosphate from test phosphopeptides compared to control and mutant peptides with assessments for the times indicated. Reactions were carried out in a half-area 96-well plate, with three wells dedicated for each time point. To each experimental well, we added a mixture of 18 μL of ultrapure water, 25 μL of running buffer, 1 μL of a 10 mM DMSO solution of the desired peptide, and 1 μL of DMSO containing a desired concentration of flavonoid, or 1 μL DMSO for control experiments. The supplied molybdate dye mixture (50 μL) was added at t=0, followed by 5 μL of a 1:100 dilution of enzyme in the aforementioned dilution buffer. Other wells were initiated via the addition of 5 μL of the diluted enzyme mixture@t=0 and terminated at the desired timepoints by addition of 50 μL of the dye solution. Wells were read@605 nm.

human PTPRD phosphatase = target: T2, human PTPRD phosphatase (Homo sapiens, UniProt P23468); assay: pNPP dephosphorylation to p-nitrophenolate (405 nm); settings: FIG. 4; peptide 4×10^−4 M, pNPP 1.8×10^−5M
T2 construct: His6 (N); made in house; host or cells: E. coli (vector optimized for E. coli codon use)
T2 sequence (P23468 with tags, fused parts or gaps): T1 sequence (P23468 with tags, fused parts or gaps)
Procedure: pNPP dephosphorylation to p-nitrophenolate: Triplicate assays were used for human PTPRD phosphatase, pNPP substrate and spectrophotometric 405 nm detection of the dephosphorylation product of these enzyme's activities using a Spectromax plate reader. Controls used 5×10^−5M 7-BIA with 18 min incubations as described. See G. R. Uhl et al., “Cocaine reward is reduced by decreased expression of receptor-type protein tyrosine phosphatase D (PTPRD) and by a novel PTPRD antagonist.” Proc Natl Acad Sci USA 115, 11597-11602 (2018). For assays determining the effect of flavonoids on pNPP hydrolysis, a 96 well half-area plate was prepared by first filling each well to be tested with 18 μL of 50 μM pNPP and 25 μL of running buffer (43.4 μM HEPES (pH 7.4), 2.2 μM dithiothreitol, 0.44% acetylated bovine serum albumin, 22.2 μM NaCl, 4.4 μM EDTA), and 2 μL of DMSO containing the desired concentration of flavonoid and/or peptide. PTPRD1 was diluted 1:50 in a dilution buffer (22.9 μM pH 7.4 HEPES, 1% acetylated bovine serum albumin, 4.6 μM dithiothreitol). At the zero time point, 5 uL of this solution was added to each well, and the optical density was measured in 36 second intervals at 405 nm. Results were plotted and the slopes of the linear region were fit. All experiments were performed three times with three wells dedicated to each experimental condition in each experiment.

[2] = target: T1, PTPRD D1 phosphatase (SEQ ID NO: 1); assay: Orthophosphate release assay (malachite green/molybdate) with phosphopeptide substrates; settings: peptide as substrate; FIG. 1

PTPRD's activity in dephosphorylating CDK5 phosphopeptide (positive allosteric modulation) [1]	PTPRD's activity in dephosphorylating GSK3 phosphopeptide (positive allosteric modulation) [1]	competition for PTPRD phosphatase's hydrolysis of pNPP (human PTPRD phosphatase)	Compound	normalized rates of liberation of orthophosphate from pY15CDK5 alanine substitution mutants vs wildtype [1]	also measured
trend-level	significant		O=c1c(O)c(-c2ccc(O)c(O)c2)oc2cc(O)ccc12 [fisetin]		
trend-level	significant		O=c1c(O)c(-c2ccc(O)cc2O)oc2cc(O)cc(O)c12 [morin]		
trend-level	significant		O=c1c(O)c(-c2cc(O)c(O)c(O)c2)oc2cc(O)cc(O)c12 [myricetin]		
		competes	QLVRGEPNVS-pY-ICSRYYRAPE [GSK3 phosphopeptide]		liberation of orthophosphate from phosphopeptide by PTPRD's phosphatase [2]: substantial liberation of orthophosphate
		inactive	QLVRGEPNVSYICSRYYRAPE (QLVRGEPNVSSYICSRYYRAPE) [dephospho GSK3β, GSK3α peptide, GSK3β/α wildtype dephosphopeptide]		
			YAKLAKIGAGT-pY-GTVFKAKN [mutant 6]	nominally-significant (6) reductions in activity	
			YEALEAIGEGT-pY-GTVFKAKN [mutant 7]	nominally-significant increases in activity	
			YEALEKIGEGT-pY-GTVFKAKN [mutant 4]	trends	
			YEKLEAIGEGT-pY-GTVFKAKN [mutant 2]	nominally-significant increases in activity	
			YEKLEKIGAGT-pY-GTVFKAKN [mutant 1]	trends	
		competes	YEKLEKIGEGT-pY-GTVFKAKN [CDK5 phosphopeptide]		liberation of orthophosphate from phosphopeptide by PTPRD's phosphatase [2]: rates similar to those found for the generic positive control substrate
		inactive	YEKLEKIGEGTYGTVFKAKN [dephospho CDK5 peptide, CDK5 wildtype dephosphopeptide]		

Compound	PTPRD's activity in dephosphorylating CDK5 phosphopeptide (positive allosteric modulation) [1]	PTPRD's activity in dephosphorylating GSK3 phosphopeptide (positive allosteric modulation) [1]	competition for PTPRD phosphatase's hydrolysis of pNPP (human PTPRD phosphatase)	normalized rates of liberation of orthophosphate from pY15CDK5 alanine substitution mutants vs wildtype [1]	also measured
O=c1c(O)c(-c2ccc(O)c(O)c2)oc2cc(O)cc(O)c12 [quercetin]	increased	increased			stimulation of orthophosphate liberation from phosphopeptides by PTPRD phosphatase, dose-response ([1]; FIG. 9, pYGSK3 and pYCDK5 phosphopeptides): active at micromolar concentrations
